Experimental data reported in the supplement of paper PMC5998384.

What was measured:
HeLa Kyoto [1] = test: melting temperature (median over replicates), in situ; higher = more thermally stable
HeLa Kyoto [2] = test: solubility change mitosis vs G1/S (difference of NP-40 vs SDS log2 ratios) (log2 ratio difference); higher = more soluble in mitosis
HeLa Kyoto [3] = test: solubility in G1/S (NP-40 vs SDS abundance) (log2 ratio); higher = more soluble; settings: cell cycle stage: G1/S
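Throughout, for melting temperature (median over replicates), in situ: HeLa Kyoto cells synchronized by double thymidine or nocodazole block, proteins quantified by TMT10plex mass spectrometry, three independent biological replicates.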
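Throughout, for solubility change mitosis vs G1/S (difference of NP-40 vs SDS log2 ratios): synchronized HeLa Kyoto cells (double thymidine block for G1/S, nocodazole release for mitosis), protein amounts in NP-40 versus SDS lysates quantified by mass spectrometry, three biological replicates.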
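Throughout, for solubility in G1/S (NP-40 vs SDS abundance): HeLa Kyoto cells arrested at G1/S by double thymidine block, proteins quantified by TMT10plex mass spectrometry in mild NP-40 versus SDS extracts, three biological replicates.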

Sequence	melting temperature (HeLa Kyoto [1]; cell cycle stage: G1/S)	melting temperature (HeLa Kyoto [1]; cell cycle stage: mitosis)	solubility change mitosis (log2) (HeLa Kyoto [2])	solubility in G1/S (log2) (HeLa Kyoto [3])
MGEAGAGAGASGGPEASPEAEVVKLLPFLAPGARADLQAAAVRHVLALTGCGPGRALLAGQAALLQALMELAPASAPARDAARALVNLAADPGLHETLLAADPGLPARLMGRALDPQWPWAEEAAAALANLSREPAPCAALMAALAAAEPADSGLERLVRALCTPGYNARAPLHYLAPLLSNLSQRPAARAFLLDPDRCVVQRLLPLTQYPDSSVRRGGVVGTLRNCCFEHRHHEWLLGPEVDILPFLLLPLAGPEDFSEEEMERLPVDLQYLPPDKQREPDADIRKMLVEAIMLLTATAPGRQQVRDQGAYLILRELHSWEPEPDVRTACEKLIQVLIGDEPERGMENLLEVQVPEDVEQQLQQLDCREQEQLERELAPEPWVERATPT [HGH1]	48.7 °C	50.5 °C	0.156	0.131
MGKKHKKHKSDKHLYEEYVEKPLKLVLKVGGNEVTELSTGSSGHDSSLFEDKNDHDKHKDRKRKKRKKGEKQIPGEEKGRKRRRVKEDKKKRDRDRVENEAEKDLQCHAPVRLDLPPEKPLTSSLAKQEEVEQTPLQEALNQLMRQLQRKDPSAFFSFPVTDFIAPGYSMIIKHPMDFSTMKEKIKNNDYQSIEELKDNFKLMCTNAMIYNKPETIYYKAAKKLLHSGMKILSQERIQSLKQSIDFMADLQKTRKQKDGTDTSQSGEDGGCWQREREDSGDAEAHAFKSPSKENKKKDKDMLEDKFKSNNLEREQEQLDRIVKESGGKLTRRLVNSQCEFERRKPDGTTTLGLLHPVDPIVGEPGYCPVRLGMTTGRLQSGVNTLQGFKEDKRNKVTPVLYLNYGPYSSYAPHYDSTFANISKDDSDLIYSTYGEDSDLPSDFSIHEFLATCQDYPYVMADSLLDVLTKGGHSRTLQEMEMSLPEDEGHTRTLDTAKEMEITEVEPPGRLDSSTQDRLIALKAVTNFGVPVEVFDSEEAEIFQKKLDETTRLLRELQEAQNERLSTRPPPNMICLLGPSYREMHLAEQVTNNLKELAQQVTPGDIVSTYGVRKAMGISIPSPVMENNFVDLTEDTEEPKKTDVAECGPGGS [BRD7]	46.7 °C	49.1 °C	0.315	-0.49
MGPVRLGILLFLFLAVHEAWAGMLKEEDDDTERLPSKCEVCKLLSTELQAELSRTGRSREVLELGQVLDTGKRKRHVPYSVSETRLEEALENLCERILDYSVHAERKGSLRYAKGQSQTMATLKGLVQKGVKVDLGIPLELWDEPSVEVTYLKKQCETMLEEFEDIVGDWYFHHQEQPLQNFLCEGHVLPAAETACLQETWTGKEITDGEEKTEGEEEQEEEEEEEEEEGGDKMTKTGSHPKLDREDL [CNPY4]		54.3 °C	0.223	0.0586
MGWSQDLFRALWRSLSREVKEHVGTDQFGNKYYYIPQYKNWRGQTIREKRIVEAANKKEVDYEAGDIPTEWEAWIRRTRKTPPTMEEILKNEKHREEIKIKSQDFYEKEKLLSKETSEELLPPPVQTQIKGHASAPYFGKEEPSVAPSSTGKTFQPGSWMPRDGKSHNQ [NDUFAF2]	55.5 °C	52.2 °C	0.329	0.329
MIEDTMTLLSLLGRIMRYFLLRPETLFLLCISLALWSYFFHTDEVKTIVKSSRDAVKMVKGKVAEIMQNDRLGGLDVLEAEFSKTWEFKNHNVAVYSIQGRRDHMEDRFEVLTDLANKTHPSIFGIFDGHGGETAAEYVKSRLPEALKQHLQDYEKDKENSVLSYQTILEQQILSIDREMLEKLTVSYDEAGTTCLIALLSDKDLTVANVGDSRGVLCDKDGNAIPLSHDHKPYQLKERKRIKRAGGFISFNGSWRVQGILAMSRSLGDYPLKNLNVVIPDPDILTFDLDKLQPEFMILASDGLWDAFSNEEAVRFIKERLDEPHFGAKSIVLQSFYRGCPDNITVMVVKFRNSSKTEEQ [PPM1L]		53.9 °C	-0.142	-0.0862
MISQFFILSSKGDPLIYKDFRGDSGGRDVAELFYRKLTGLPGDESPVVMHHHGRHFIHIRHSGLYLVVTTSENVSPFSLLELLSRLATLLGDYCGSLGEGTISRNVALVYELLDEVLDYGYVQTTSTEMLRNFIQTEAVVSKPFSLFDLSSVGLFGAETQQSKVAPSSAASRPVLSSRSDQSQKNEVFLDVVERLSVLIASNGSLLKVDVQGEIRLKSFLPSGSEMRIGLTEEFCVGKSELRGYGPGIRVDEVSFHSSVNLDEFESHRILRLQPPQGELTVMRYQLSDDLPSPLPFRLFPSVQWDRGSGRLQVYLKLRCDLLSKSQALNVRLHLPLPRGVVSLSQELSSPEQKAELAEGALRWDLPRVQGGSQLSGLFQMDVPGPPGPPSHGLSTSASPLGLGPASLSFELPRHTCSGLQVRFLRLAFRPCGNANPHKWVRHLSHSDAYVIRI [AP4M1]	49.2 °C		-0.0241	-0.0981
MKAVKSERERGSRRRHRDGDVVLPAGVVVKQERLSPEVAPPAHRRPDHSGGSPSPPTSEPARSGHRGNRARGVSRSPPKKKNKASGRRSKSPRSKRNRSPHHSTVKVKQEREDHPRRGREDRQHREPSEQEHRRARNSDRDRHRGHSHQRRTSNERPGSGQGQGRDRDTQNLQAQEEEREFYNARRREHRQRNDVGGGGSESQELVPRPGGNNKEKEVPAKEKPSFELSGALLEDTNTFRGVVIKYSEPPEARIPKKRWRLYPFKNDEVLPVMYIHRQSAYLLGRHRRIADIPIDHPSCSKQHAVFQYRLVEYTRADGTVGRRVKPYIIDLGSGNGTFLNNKRIEPQRYYELKEKDVLKFGFSSREYVLLHESSDTSEIDRKDDEDEEEEEEVSDS [SNIP1]		49.8 °C	0.493	-0.985
